Laboratory results as given in article PMC9978964.

What was measured:
Assay in all cases: BLI
[1] = target: biotinylated FXR NES peptide (amino acids 401–454), T442 non-phosphorylated (human)
[2] = target: biotinylated FXR NES peptide (amino acids 401–454), T442 phosphorylated (human)
[3] = target: biotinylated FXR NLS peptide (amino acids 191–230), K217 acetylated (human)
[4] = target: biotinylated FXR NLS peptide (amino acids 191–230), K217 non-acetylated (human)

Row | Substance | Kd [1] [nM] | Kd [2] [nM] | Kd [3] [nM] | Kd [4] [nM]
1 | CRM1 protein used in the BLI assay (from UniProt O14980 1-1071) (natural protein) | 90.1 | 181 | – | –
2 | KPNA3 protein used in the BLI assay (from UniProt O00505 1-521) (natural protein) | – | – | 51 | 17.4
